Reference: patent publication US20150344570A1 (published 2015)

T1: FcγRIIa R (extracellular domain, His tag at the C terminus) (human, UniProt P12318 34-217)
T1 construct: extracellular domain; Soluble analyte in Biacore; also called FcgRIIa R type; 2aR
T1 sequence (looked up): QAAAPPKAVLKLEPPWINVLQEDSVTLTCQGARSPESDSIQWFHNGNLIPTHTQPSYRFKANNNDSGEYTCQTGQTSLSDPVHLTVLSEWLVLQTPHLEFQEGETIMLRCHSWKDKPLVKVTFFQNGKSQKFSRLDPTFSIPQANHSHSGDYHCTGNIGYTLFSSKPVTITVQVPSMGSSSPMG

T2: FcγRIIb (human, UniProt P31994 43-217)
T2 construct: extracellular domain; Soluble His-tagged extracellular domain expressed in FreeStyle293 cells; analyte in Biacore; also called FcgRIIb; 2b; not shown: His tag attached to the C terminus
T2 sequence (looked up): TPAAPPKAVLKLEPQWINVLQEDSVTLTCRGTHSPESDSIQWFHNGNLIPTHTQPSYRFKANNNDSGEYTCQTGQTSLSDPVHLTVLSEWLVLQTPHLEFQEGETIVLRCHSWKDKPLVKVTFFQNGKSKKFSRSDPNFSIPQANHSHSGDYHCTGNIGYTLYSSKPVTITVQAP

T3: FcγRIIa R (human, UniProt P12318 34-217)
T3 construct: extracellular domain; Soluble His-tagged extracellular domain expressed in FreeStyle293 cells; analyte in Biacore; also called FcgRIIa R; FcgRIIaR; not shown: His tag attached to the C terminus
T3 sequence (looked up): T1 sequence (looked up)

B1: GpH7-A5/GpH7-B3 variant Y296_20W/GpL16-k0 (antibody, human IgG1, kappa)
heavy 1: not shown
heavy 2: not shown
light: DIVMTQSPLSLPVTPGEPASISCQASESLVHSNRNTYLHWYLQKPGQSPQLLIYKVSNRFSGVPDRFSGSGSGTDFTLKISRVEAEDVGVYYCSQNTHVPPTFGQGTKVEIERTVAAPSVFIFPPSDEQLKSGTASVVCLLNNFYPREAKVQWKVDNALQSGNSQESVTEQDSKDSTYSLSSTLTLSKADYEKHKVYACEVTHQGLSSPVTKSFNRGEC
notes: heterodimerized; also called He Ab
B2: GpH7-A5/GpH7-B3 variant Y300_04F/GpL16-k0 (antibody, human IgG1, kappa)
heavy 1: not shown
heavy 2: not shown
light: B1 light
notes: as for B1
B3: GpH7-A5/GpH7-B3 variant V266_06M/GpL16-k0 (antibody, human IgG1, kappa)
heavy 1: not shown
heavy 2: not shown
light: B1 light
notes: as for B1
B4: GpH7-A5/GpH7-B3 variant P329_01G/GpL16-k0 (antibody, human IgG1, kappa)
heavy 1: not shown
heavy 2: not shown
light: B1 light
notes: Heterodimerized anti-glypican-3 IgG1 antibody; alteration only in the GpH7-B3 H chain; position in EU numbering; also called He Ab
B5: GpH7-A5/GpH7-B3 variant N325_05P/GpL16-k0 (antibody, human IgG1, kappa)
heavy 1: not shown
heavy 2: not shown
light: B1 light
notes: as for B4
B6: GpH7-A5/GpH7-B3 variant A330_09D/GpL16-k0 (antibody, human IgG1, kappa)
heavy 1: not shown
heavy 2: not shown
light: B1 light
notes: as for B4
B7: GpH7-A5/GpH7-B3 variant P329_07I/GpL16-k0 (antibody, human IgG1, kappa)
heavy 1: not shown
heavy 2: not shown
light: B1 light
notes: as for B4
B8: GpH7-A5/GpH7-B3 variant P329_06M/GpL16-k0 (antibody, human IgG1, kappa)
heavy 1: not shown
heavy 2: not shown
light: B1 light
notes: as for B4
B9: GpH7-A5/GpH7-B3 variant A330_13S/GpL16-k0 (antibody, human IgG1, kappa)
heavy 1: not shown
heavy 2: not shown
light: B1 light
notes: as for B4
B10: GpH7-A5/GpH7-B3 variant P329_08L/GpL16-k0 (antibody, human IgG1, kappa)
heavy 1: not shown
heavy 2: not shown
light: B1 light
notes: as for B4
B11: GpH7-A5/GpH7-B3 variant N325_11K/GpL16-k0 (antibody, human IgG1, kappa)
heavy 1: not shown
heavy 2: not shown
light: B1 light
notes: as for B4
B12: GpH7-A5/GpH7-B3 variant A330_08L/GpL16-k0 (antibody, human IgG1, kappa)
heavy 1: not shown
heavy 2: not shown
light: B1 light
notes: as for B4
B13: GpH7-A5/GpH7-B3 variant N325_16H/GpL16-k0 (antibody, human IgG1, kappa)
heavy 1: not shown
heavy 2: not shown
light: B1 light
notes: as for B4
B14: GpH7-A5/GpH7-B3 variant A330_18N/GpL16-k0 (antibody, human IgG1, kappa)
heavy 1: not shown
heavy 2: not shown
light: B1 light
notes: as for B4
B15: GpH7-A5/GpH7-B3 variant A330_07I/GpL16-k0 (antibody, human IgG1, kappa)
heavy 1: not shown
heavy 2: not shown
light: B1 light
notes: as for B4
B16: GpH7-A5/GpH7-B3 variant P329_04F/GpL16-k0 (antibody, human IgG1, kappa)
heavy 1: not shown
heavy 2: not shown
light: B1 light
notes: as for B4
B17: GpH7-A5/GpH7-B3 variant I336_20W/GpL16-k0 (antibody, human IgG1, kappa)
heavy 1: not shown
heavy 2: not shown
light: B1 light
notes: as for B4
B18: GpH7-A5/GpH7-B3 variant A330_10E/GpL16-k0 (antibody, human IgG1, kappa)
heavy 1: not shown
heavy 2: not shown
light: B1 light
notes: as for B4
B19: GpH7-A5/GpH7-B3 variant P329_03V/GpL16-k0 (antibody, human IgG1, kappa)
heavy 1: not shown
heavy 2: not shown
light: B1 light
notes: as for B4
B20: GpH7-A5/GpH7-B3 variant N325_12R/GpL16-k0 (antibody, human IgG1, kappa)
heavy 1: not shown
heavy 2: not shown
light: B1 light
notes: as for B4
B21: GpH7-A5/GpH7-B3 variant A330_03V/GpL16-k0 (antibody, human IgG1, kappa)
heavy 1: not shown
heavy 2: not shown
light: B1 light
notes: as for B4
B22: GpH7-A5/GpH7-B3 variant A330_14T/GpL16-k0 (antibody, human IgG1, kappa)
heavy 1: not shown
heavy 2: not shown
light: B1 light
notes: as for B4
B23: GpH7-A5/GpH7-B3 variant N325_19Q/GpL16-k0 (antibody, human IgG1, kappa)
heavy 1: not shown
heavy 2: not shown
light: B1 light
notes: as for B4
B24: GpH7-A5/GpH7-B3 variant A330_12R/GpL16-k0 (antibody, human IgG1, kappa)
heavy 1: not shown
heavy 2: not shown
light: B1 light
notes: as for B4
B25: GpH7-A5/GpH7-B3 variant P329_09D/GpL16-k0 (antibody, human IgG1, kappa)
heavy 1: not shown
heavy 2: not shown
light: B1 light
notes: as for B4
B26: GpH7-A5/GpH7-B3 variant N325_02A/GpL16-k0 (antibody, human IgG1, kappa)
heavy 1: not shown
heavy 2: not shown
light: B1 light
notes: as for B4
B27: GpH7-A5/GpH7-B3 variant P329_02A/GpL16-k0 (antibody, human IgG1, kappa)
heavy 1: not shown
heavy 2: not shown
light: B1 light
notes: as for B4
B28: GpH7-A5/GpH7-B3 variant Y300_05P/GpL16-k0 (antibody, human IgG1, kappa)
heavy 1: not shown
heavy 2: not shown
light: B1 light
notes: as for B4

What follows are binders tested against T1, FcγRIIa R (extracellular domain, His …) (assay: SPR (Biacore), relative binding, control GpH7-A5/GpH7-B3/GpL16-k0 = 100).
Description: (§1) Analysis of interaction between objective antibody and the FcγR was carried out using Biacore T100 (GE Healthcare). HBS-EP+ (GE Healthcare) was used as the running buffer, and the measurement temperature was set to 25° C. Chips produced by immobilizing the antigen peptide by the amine coupling method to a Series S Sencor Chip CM5 (GE Healthcare), or alternatively, chips produced by allowing preliminarily biotinylated antigen peptides to interact with and immobilize onto a Series S Sensor Chip SA (certified) (GE Healthcare) were used. Antibodies of interest were captured onto an antigen peptide-immobilized chip, and allowed to interact to each FcγR diluted with running buffer. To regenerate and repeatedly use the chip, the antibodies captured on the chip were washed off by reacting 10 mM glycine-HCl, pH 1.5.

He/Con_2aR | Binder
110 % of control | B1
108 % of control | B2
150 % of control | B3

The binders below were run against T2, FcγRIIb (assay: SPR (Biacore), antibody captured via antigen peptide, FcγR as analyte).
Description: (§2) The heterodimerized antibodies He Abs in which one of the H chains was introduced with an alteration were assayed for their binding activities to each activating FcγR and inhibitory FcγR according to the method described in Example 4. […] The activating FcγRs in FIGS. 26, 27, 28, and 29 are FcγRIa, FcγRIIa (R), FcγRIIa (H), and FcγRIIIa, respectively.
as §1

He/Con_2b (IIb binding relative to GpH7-A5/GpH7-B3/GpL16-k0) | Binder
41.7 % of control (control = 100) | B4
26 % of control (control = 100) | B5
55.6 % of control (control = 100) | B6
34.6 % of control (control = 100) | B7
29.1 % of control (control = 100) | B8
41.3 % of control (control = 100) | B9
29.1 % of control (control = 100) | B10
10.4 % of control (control = 100) | B11
70.5 % of control (control = 100) | B12
70.1 % of control (control = 100) | B13
63.7 % of control (control = 100) | B14
67.1 % of control (control = 100) | B15
32.2 % of control (control = 100) | B16
20.3 % of control (control = 100) | B17
70.1 % of control (control = 100) | B18
38.5 % of control (control = 100) | B19
19.1 % of control (control = 100) | B20
52.4 % of control (control = 100) | B21
77.9 % of control (control = 100) | B22
69.1 % of control (control = 100) | B23
84.8 % of control (control = 100) | B24
53.5 % of control (control = 100) | B25
64.4 % of control (control = 100) | B26
40.5 % of control (control = 100) | B27

These binders were tested against T3, FcγRIIa R in the same assay as above.
Description: as §2, §1

He/Con_2aR (IIaR binding relative to GpH7-A5/GpH7-B3/GpL16-k0) | Binder
55 % of control (control = 100) | B4
42.2 % of control (control = 100) | B5
70.9 % of control (control = 100) | B6
49.6 % of control (control = 100) | B7
42.7 % of control (control = 100) | B8
60.8 % of control (control = 100) | B9
42.8 % of control (control = 100) | B10
16.2 % of control (control = 100) | B11
88.8 % of control (control = 100) | B12
89 % of control (control = 100) | B13
10.8 % of control (control = 100) | B28
81.1 % of control (control = 100) | B14
85.6 % of control (control = 100) | B15
44.7 % of control (control = 100) | B16
30.3 % of control (control = 100) | B17
86.6 % of control (control = 100) | B18
53.8 % of control (control = 100) | B19
26.1 % of control (control = 100) | B20
74.9 % of control (control = 100) | B21
95.5 % of control (control = 100) | B22
92.1 % of control (control = 100) | B23
104 % of control (control = 100) | B24
67.8 % of control (control = 100) | B25
84.1 % of control (control = 100) | B26
58.9 % of control (control = 100) | B27

What follows are binders tested against T3, FcγRIIa R (assay: ratio of He/Con_2aR to He/Con_2b (binding to FcγRIIb as reference); SPR).

He_2aR/2b (IIaR/IIb) | Binder
1.32 | B4
1.63 | B5
1.27 | B6
1.44 | B7
1.47 | B8
1.47 | B9
1.47 | B10
1.57 | B11
1.26 | B12
1.27 | B13
1.47 | B28
1.27 | B14
1.27 | B15
1.39 | B16
1.5 | B17
1.23 | B18
1.4 | B19
1.37 | B20
1.43 | B21
1.23 | B22
1.33 | B23
1.22 | B24
1.27 | B25
1.31 | B26
1.45 | B27
